Substitutions are numbered along the chain they refer to.
B1: MPK65-v2-v1.2 (antibody, V domains shown)
VH: QVPLVQSGAEVKKPGESLKISCKGSGYSFINYWIGWVRQMPGKGLEWMGVIYPFDSDTKYSPSFQGHVTISADKSSNTAYVQWSSLKASDTAMYYCARFTFGIAVVTDDVSGEGQAFEIWGQGTMVTVSS
VL: QIVMMQSPATLSVSPGERATLSCRASQSVAGNLAWYQQRPGQAPRLLIYGASTRATGVPARFSGSGSETEFTLTISSLQSEDFAVYYCHQYSNLPQAFGQGTRLDIK
B2: MPK65-v2-v3.1 (antibody, V domains shown)
VH: B1 VH with N31S, S56A
VL: B1 VL with Q1E, L94W
B3: MPK201-v1.2 (antibody, V domains shown)
VH: EVQLVQSGAEVKKPGESLKISCQGSGYSFINYWIGWVRQKPGKGLEWMGIIYPFDSETKYSPSFQGHVTFSADKSINTAYVQWSSLRASDTAMYYCARFTFGLAVTTADVSGEGQAFEIWGQGTMVTVSS
VL: B1 VL with I48V, T56S, Q90H, N93D
B4: MPK201-v4.1 (antibody, V domains shown)
VH: B3 VH with E1Q, N31S
VL: B1 VL with Q1E, I48V, T56S, Q90H, N93D, L94W
B5: MPK176-v1.3 (antibody, V domains shown)
VH: QVQLVQSGAEVKKPGASVRVSCKASGYTLTAYGISWVRQAPGQGLEWMGWISPKHGNTHYAQRFQGRVTMTTDTSTSTAYMELRSLRPDDTAVYFCAREGVDIMAVPWYFDYWGQGTLVAVSS
VL: SYVLTQPPSVSVAPGQTARISCGGNNIGSKSVHWYQQKPGQAPVVVVYDDSKRPSGIPERFSGSNSGNTATLTISGVEAGDEADYFCQVWDSATDHWVFGGGTKLTVL
B6: MPK176-v4.3 (antibody, V domains shown)
VH: B5 VH with N57S
VL: B5 VL
B7: MPK158 (antibody, V domains shown)
VH: EVQLVESGGGLVKPGGSLRLSCAASGFSISGFYMIWIRQAPGKGLEWISDISASSSYIDYADSVKGRFTISRDNGQNTVHLLMNNLRADDTGVYYCAREQTPSPGPFDLWGQGTLVTVST
VL: QPVLTQPPSVSGAPGQRVTISCTGRSSNIGAGYDVHWYQHLPGTSPKLLIYRNSNRPSGVPDRFSGSTSGTSASLAITGLQADDEADYYCQAYDRILGGWAFGGGTKLTVL
B8: MPK204 (antibody, V domains shown)
VH: QVQLVESGGGLVKPGGSLRLSCEASGLSLSGYYMIWIRQAPGKGLEWISSISSSSNYIDYADSVKGRFTISRHNGQNTLYLQMNSLRVEDTAVYYCATEQTPSPGPFDLWGQGTLVTVSS
VL: QSVLTQPPSVSGAPGQRVTISCTGTSSNIGTGYDVHWYQQFPGTSPKLLIYRNTNRPSGVPDRFSGSKSGSSASLAIAGLQAEDEADYYCQSYDRSVSGWVFGGGTKLTVL
B9: MPK146 (antibody, V domains shown)
VH: QVQLVESGGGLVKPGGSLRLSCAASGFTFSGYYMIWIRQAPGKGLEWIASISGSSNYIDYADSVRGRFTISRDNARNILDLQMNSLRAGDTALYYCATEQVPSPGPFDLWGQGTLVTVSS
VL: B8 VL with T25S, S26N, I29L, T31A, S65A, S71T, A78T, V97L
B10: MPK130 (antibody, V domains shown)
VH: EVQLVESGGGLVKPGGSLTLSCEASGFSISGYYMIWVRQAPGKGLEWVSSISASDTYIDYAVSVQGRFTISRHNTKNSLYLQMSSLRVEDTGVYYCTREKVPSPGPFDCWGQGTLVTVSS
VL: QSVLTQPPSVSGAPGQRITISCTGTSSNIGAGYDVHWYQHLPGAAPRLLIYVNTNRPSGVPDRFSGARSGTSASLAITGLQAEDEADYYCQSYDRSLGGWAFGEGTKVTVL
B11: MPK133 (antibody, V domains shown)
VH: QVQLVQSGGGLVKPGGSLRLSCAASEFSFSGYFMIWIRQAPGKGLEWISYISGSSTYTNYADSVKGRFTISRDNAQNTLYLEMNSLRAEDTGVYYCATEQVPSPGPFDLWGQGTLVTVSS
VL: B8 VL with T25S, T31A, T44R, K47T, K68Q, A78T, S96T, V97L, V101A, L108V
B12: MPH12-v1 (VH C111/C112.2 variant of Tables 18 and 19) (antibody, V domains shown)
VH: QVQLVESGGGLVKPGGSLRLSCVASGFTFSGFYMKWIRQAPGKGLEWVSSISASGSYTNYADSVEGRFTVSRDNAKNSLFLLMSSLRAEDTAVYYCARGDSYSGASASHGEFFHKWGQGTLVTVSS
VL: QSVLTQPPSVSGAPGQRVTISCTGSDSNIGADFDVHWYQQLPGTAPKLLIYGNINRPSGVPDRFSGSRSGTSAFLAITRLQAEDEADYYCQSYDRSLHYVFGAGTKVTVL
B13: RSD5-FR-GL-rIgG1 (antibody, V domains shown)
VH: QVQLVESGGGVVQPGRSLRLSCAASGFAFNNFAMHWVRQAPGKGLEWVAVVSYDGTSPYYADSVKGRFTISRDNSKNTLYLQMNSLRAEDTAVYYCARGLGSGSYSWIGYFYAMDVWGQGTTVTVSS
VL: QSALTQPASVSGSPGQSITISCTGTSSDVGGYVYVSWYQQHPGKAPKLMIYDVSNRPSGVSNRFSGSKSGNTASLTISGLQAEDEADYYCISYTDRNTVVFGGGTKLTVL
notes: Germline-reverted version of RSD5 (framework regions), recombinant IgG1; also called RSD5-FR-GL-rlgG1

Target: T1, RSV-A F (RSV A)
T1 construct: also called RSV F A
Assay: BLI

| Binder | Kd |
| --- | --- |
| B1 | 0.205 nM |
| B2 | 0.192 nM |
| B3 | 0.211 nM |
| B4 | 0.292 nM |
| B5 | 0.136 nM |
| B6 | 0.139 nM |

Target: T2, RSV-B F (RSV B)
T2 construct: also called RSV F B
Assay: BLI

| Binder | Kd |
| --- | --- |
| B1 | 0.581 nM |
| B2 | 0.639 nM |
| B3 | 0.161 nM |
| B4 | 0.552 nM |
| B5 | 0.0256 nM |
| B6 | 0.0117 nM |

Target: fusion glycoprotein of the RSV used in the neutralization assay of Example 1 (respiratory syncytial virus (strain not …))
Assay: cell-based or functional assay

| Binder | RSV Neutralization - IC50 |
| --- | --- |
| B7 | 18.2 ng/mL |
| B8 | 12.1 ng/mL |
| B9 | 16.6 ng/mL |
| B10 | 20.6 ng/mL |
| B11 | 21.1 ng/mL |

Target: fusion glycoprotein of the MPV D280 used in the neutralization assay of Example 3 (metapneumovirus (strain ))
Assay: cell-based or functional assay

| Binder | MPV D280 Neutralization - IC50 |
| --- | --- |
| B7 | 6 ng/mL |
| B8 | 6 ng/mL |
| B9 | 5.4 ng/mL |
| B10 | 4.3 ng/mL |
| B11 | 3.5 ng/mL |

Target: fusion glycoprotein (F) of MPV A1/6621 (metapneumovirus A1/6621)
Assay: cell-based or functional assay

| Binder | MPV IC50 (nM), neutralization of MPV A1/6621 |
| --- | --- |
| B12 | 5.87 nM |

Target: fusion glycoprotein (F) of RSV A GFP (Tables 41 and 42) (respiratory syncytial virus A)
Assay: cell-based or functional assay

| Binder | IC50 (ng/ml), RSV A GFP neutralization |
| --- | --- |
| B13 | 1.27 ng/mL |

Target: fusion glycoprotein (F) of RSV B GFP (Tables 41 and 42) (respiratory syncytial virus B)
Assay: cell-based or functional assay

| Binder | IC50 (ng/ml), RSV B GFP neutralization |
| --- | --- |
| B13 | 1.14 ng/mL |

Target: fusion glycoprotein (F) of MPV A GFP (Tables 41 and 43) (metapneumovirus A)
Assay: cell-based or functional assay

| Binder | IC50 (ng/ml), MPV A GFP neutralization |
| --- | --- |
| B13 | > 2000 ng/mL |

Target: RSV A fusion glycoprotein (F), virus of the neutralisation assays of Tables 54 and 57 (RSV A)
Assay: cell-based or functional assay

| Binder | IC50, neutralization of RSVA |
| --- | --- |
| B1 | 4.38 ng/mL |
| B2 | 5.4 ng/mL |
| B3 | 2.88 ng/mL |
| B4 | 4.35 ng/mL |
| B5 | 3.94 ng/mL |
| B6 | 4.35 ng/mL |

Target: T3, RSV F A, A2 Ref (RSV A, strain A2, UniProt P03420 26-574)
T3 construct: whole, on cells
Assay: FACS, % binding to RSV F A variants

| Binder | % binding |
| --- | --- |
| B1 | 56% |
| B3 | 66.9% |
| B4 | 54.1% |
| B5 | 78.1% |

Target: T4, RSV F A S443P-K445N (RSV A, strain A2, UniProt P03420 26-574)
T4 construct: whole, on cells
Assay: FACS, % binding to RSV F A variants

| Binder | % binding |
| --- | --- |
| B1 | 33.5% |
| B3 | 36% |
| B4 | 2700% |
| B5 | 0.036% |

Target: T5, RSV F A G446E (RSV A, strain A2, UniProt P03420 26-574)
T5 construct: whole, on cells
Assay: FACS, % binding to RSV F A variants

| Binder | % binding |
| --- | --- |
| B1 | 25.4% |
| B3 | 29% |
| B4 | 18% |
| B5 | 0.017% |

Target: T6, RSV F A L203I (RSV A, strain A2, UniProt P03420 26-574)
T6 construct: whole, on cells
Assay: FACS, % binding to RSV F A variants

| Binder | % binding |
| --- | --- |
| B1 | 18% |
| B3 | 40% |
| B4 | 13.1% |
| B5 | 56.1% |

Target: T7, RSV F B, B Ref (RSV B)
T7 construct: whole, on cells
Assay: FACS, % binding to RSV F B variants

| Binder | % binding |
| --- | --- |
| B1 | 56.4% |
| B2 | 60.1% |
| B3 | 61.3% |
| B4 | 51.9% |
| B5 | 39.9% |
| B6 | 34.2% |

Target: T8, RSV F B K68N-N201S (RSV B)
T8 construct: whole, on cells
Assay: FACS, % binding to RSV F B variants

| Binder | % binding |
| --- | --- |
| B1 | 30.8% |
| B2 | 22.6% |
| B3 | 47.3% |
| B4 | 30% |
| B5 | 60% |
| B6 | 60.4% |

Target: T9, RSV F B K68N-N208S (RSV B)
T9 construct: whole, on cells
Assay: FACS, % binding to RSV F B variants

| Binder | % binding |
| --- | --- |
| B1 | 0.047% |
| B2 | 0.052% |
| B3 | 12.1% |
| B4 | 0.048% |
| B5 | 57.9% |
| B6 | 59.3% |

Target: T10, RSV F B N201S (RSV B)
T10 construct: whole, on cells
Assay: FACS, % binding to RSV F B variants

| Binder | % binding |
| --- | --- |
| B1 | 35.9% |
| B2 | 31.3% |
| B3 | 47.7% |
| B4 | 33% |
| B5 | 60.2% |
| B6 | 60.6% |

Target: T11, RSV F B N208D (RSV B)
T11 construct: whole, on cells
Assay: FACS, % binding to RSV F B variants

| Binder | % binding |
| --- | --- |
| B1 | 0.47% |
| B2 | 0.14% |
| B3 | 0.015% |
| B4 | 0.018% |
| B5 | 53.6% |

Target: T12, RSV F B N208S (RSV B)
T12 construct: whole, on cells; also called mutant N208S
Assay: FACS, % binding to RSV F B variants

| Binder | % binding |
| --- | --- |
| B1 | 0.041% |
| B2 | 0.029% |
| B3 | 14.4% |
| B4 | 0.016% |
| B5 | 60.4% |
| B6 | 61.2% |

Target: T13, RSV F B S443P (RSV B)
T13 construct: whole, on cells; also called mutant S443P
Assay: FACS, % binding to RSV F B variants

| Binder | % binding |
| --- | --- |
| B1 | 33.8% |
| B2 | 30.6% |
| B3 | 45.8% |
| B4 | 31.5% |
| B5 | 33.8% |
| B6 | 29.8% |

Target: DS-Cav1 RSV F (respiratory syncytial virus (RSV); …, UniProt P13843 26-513)
Assay: ELISA on RSV-F Ds-Cav1, 1 ug/ml

| Binder | EC50 (read off the curve) |
| --- | --- |
| B12 | ~100 ng/mL |

Target: biot-RSV-F wt (respiratory syncytial virus (RSV))
Assay: BLI (Octet), biotinylated F on SA sensors, mAb 5 µg/ml

| Binder | Kd |
| --- | --- |
| B13 | 1.46 nM |
